Biological target: recombinant human SDF1 (free SDF1) (human, UniProt P48061-2 22-89)
Assay: SPR

Chain of recombinant human SDF1 (free SDF1) (P48061 22-89): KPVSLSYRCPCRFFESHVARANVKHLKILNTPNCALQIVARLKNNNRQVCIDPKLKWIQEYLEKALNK

Kd: 0.3 nM
B1: recombinant human CXCR4 (receptor, UniProt P61073 1-352, looked up)
chain: MEGISIYTSDNYTEEMGSGDYDSMKEPCFREENANFNKIFLPTIYSIIFLTGIVGNGLVILVMGYQKKLRSMTDKYRLHLSVADLLFVITLPFWAVDAVANWYFGNFLCKAVHVIYTVNLYSSVLILAFISLDRYLAIVHATNSQRPRKLLAEKVVYVGVWIPALLLTIPDFIFANVSEADDRYICDRFYPNDLWVVVFQFQHIMVGLILPGIVILSCYCIIISKLSHSKGHQKRKALKTTVILILAFFACWLPYYIGISIDSFILLEIIKQGCEFENTVHKWISITEALAFFHCCLNPILYAFLGAKFKTSAQHALTSVSRGSSLKILSKGKRGGHSSVSTESESSSFHSS

— article PMC4894760 (Journal of controlled release : official journal of the …, 2016)
